According to the supplement of paper PMC12042874:
± gives the uncertainty stated by the source.

Assay: amyloid nucleation score (Sup35N fusion, yeast selection) (log enrichment); library NNK1; higher = more nucleation; inactive = no reads after selection
Summary of the method: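 Psi-negative yeast expressed Sup35N fused to peptides of 20 random codons. They were induced 24 hours with 100 μM copper sulfate, grown 7 days at 30°C without adenine and uracil, and their plasmid inserts from input and output were Illumina-sequenced. The nucleation score is the DiMSum log enrichment of output over input reads, centred on the mode score of non-aggregating sequences. Sequences with under 100 input reads were excluded.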

Substance	amyloid nucleation score
LGPNFGTKFNMGCY	-0.304 ± 0.24
DLCQEPIG	-0.379 ± 0.3
SFYILTHTNFGTFPLFDDRH	-0.897 ± 0.69
SRCNHICHNYISMFLINCEL	5.71 ± 0.061
LSTPYHQWLLAGRSRWASRK	0.609 ± 0.49
VEPSYMFGYVVDWEHMVLKS	-2.11 ± 2.4
PDNRAINVFTLPVAVS	0.71 ± 0.44
NQTNFDVSLY	4.64 ± 0.055
SLDDPFRENCLLESFSLMLS	-0.552 ± 1.9
FSRCPHQALSTECFPFFGS	-0.122 ± 1.4
KEHRPWGCW	inactive
IYLNFLPVVPCRFFCIRTWG	inactive
LYLSWSFSALSV	-0.593 ± 1.2
TEIILYSILLSMYDLMFVVI	0.268 ± 1.4
YSYVRVIFYV	0.145 ± 1
CNELI	inactive
NSWVSINMCNVFGPHCMWTV	7.21 ± 0.074
TVWSHCIEFFGHLRKLRSLL	1.84 ± 0.5
AEHNYVRRELAGEPNLV	3.11 ± 0.095
WCSNVNFDVRVDNIKSFRWF	5.864 ± 0.053
SMGLKPGEVCLNKDFDSH	0.036 ± 1.2
TLCPLDFHRDTARELCPRGV	0.049 ± 0.4

Substance	amyloid nucleation score
IIIRRISGGFAVPSYAHLHS	0.53 ± 0.32
CCAISMFFELHNLHVTVMGS	5.54 ± 0.057
FYLHNICVRR	-0.249 ± 0.52
HLLALFTSFVTITPW	-0.986 ± 0.88
TSSAFVCVENTLWTEVVEPM	0.411 ± 0.55
GDFSGSDVHLSFLF	0.541 ± 0.4
RAVLSTSELGLPTV	0.27 ± 0.89
MRVGIWDKMRSLRCDISAC	0.293 ± 0.66
LQTLGNWLHFKYAYWLLSNL	-0.55 ± 0.72
QMGELSSYRLFGIRTFRF	-0.02 ± 0.81
LKCRLLVQTQLSESRGMWTS	0.316 ± 0.7
LFRIIWGCS	inactive
QYCKFPNIRRLRINK	-0.393 ± 0.36
YMLWSVPRLWCRVWLPTVAC	0.585 ± 0.64
STASQWQCHD	0.461 ± 0.41
GPFHRWNL	-0.129 ± 1.6
TVNGLPN	0.885 ± 0.92
GYSIDIP	inactive
PPTGTLSRHVRSSVQGMGVA	inactive
CDYAVGHNVDFYYLTSNPSG	-0.301 ± 0.53
HLYTVTHGSLNDKTGRP	0.31 ± 0.97
LYWSPVWM	-0.232 ± 1.5

Substance	amyloid nucleation score
NVSISVR	-0.054 ± 0.38
HLECFRLRLPFTNCDVYVRS	0.845 ± 0.54
EEFFMLRVDWIEEANQCKRE	0.221 ± 0.47
TNRVTGSLWDEVWSDPGPEC	-1.28 ± 0.8
DISRMMSISRLFFYNNVLFT	-0.524 ± 0.44
VNSTEGP	-0.989 ± 2.7
QYWVCNKPTLVDYRDTCDRT	0.023 ± 0.89
ASSVHPRYFLNMTSSGVRKS	inactive
MSDRKCKKDSRYLWRDLLPE	0.264 ± 0.46
HPIGSDSPHSVFMVSCVSLQ	1.68 ± 0.28
RFLPVLVSIINKRQGGYDF	0.064 ± 0.46
NRPGEINKWSTLIDGVTRFS	0.335 ± 0.41
MWYNCFMTNPGFQLSPMGSI	0.851 ± 0.55
GMVFF	0.643 ± 0.58
RALSH	-0.158 ± 0.74
HDFRFIGSWHLTYGPSVTTT	-0.471 ± 0.49
VVHLSLCMRCALWRYRELVC	1.12 ± 0.55
HVSAWWLTSNV	-0.205 ± 0.37
FTARTGALGEVVWSFSLGLG	0.316 ± 0.45
MLLLSVSLSLKID	4.35 ± 0.095
CVTAAEM	0.762 ± 0.41
SRSLPLHCMRHGVRRTGRMA	0.668 ± 0.57

Substance	amyloid nucleation score
NWNCICFLDPISRDTLYPQ	8.489 ± 0.046
VIIRIIKFTCNSSLIIITKW	0.694 ± 0.49
VAEAFTIGWGGNESSSVRSS	-0.348 ± 0.52
TNNSWCFFLRLGYT	5.05 ± 0.076
NRGSRTVLWDGNWAGTNTMP	-0.154 ± 0.47
RNFLIVLPSVYRGPFI	5.36 ± 0.064
GNVGYLGVSRYLHLC	-0.073 ± 0.41
SLWNSCSSE	4.68 ± 0.064
ESHLRASAGLWLSAGRDCNG	1.38 ± 0.63
ENVSVIRFQRRYRSCPDHGL	0.04 ± 0.46
SSWYVITATFIKDCGMTARR	4.03 ± 0.082
YFQFRDGIFIFYVTF	0.415 ± 0.64
LNALFYLKWALRRWSRKYCE	1.39 ± 0.79
YDYGVESLRLVVLCNDLWFL	-0.346 ± 0.4
HTRIADGPAC	0.018 ± 0.21
YTSGLFGF	-0.531 ± 0.37
VLFESIRWMSG	-0.142 ± 1.1
FYHFALFGVCARVPSDLACV	inactive
EDSYFYFRIEGISTVKCMAR	-0.427 ± 1.9
KVLELYRILYRREHNFWVEV	-0.317 ± 1.6
SFSHVYFYGVPYGQVPYRSV	1.5 ± 0.28
